Reference: patent publication US20260144882A1 (BIO THERA SOLUTIONS, published 2026)

T1: human Nectin-4 extracellular antigen hNectin-4-His (human, UniProt Q96NY8 32-349)
T1 construct: C-terminal 8xHis tag included
T1 sequence: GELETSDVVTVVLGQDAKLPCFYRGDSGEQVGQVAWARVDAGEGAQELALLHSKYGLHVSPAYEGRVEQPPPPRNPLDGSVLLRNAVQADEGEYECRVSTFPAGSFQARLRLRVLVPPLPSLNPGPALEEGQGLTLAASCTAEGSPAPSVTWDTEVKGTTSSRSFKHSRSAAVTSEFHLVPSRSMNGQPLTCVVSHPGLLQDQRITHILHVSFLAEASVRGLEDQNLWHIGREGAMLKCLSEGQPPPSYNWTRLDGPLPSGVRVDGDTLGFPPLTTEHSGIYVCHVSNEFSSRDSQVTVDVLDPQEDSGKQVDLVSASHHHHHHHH


Assays:
[1] = molecular target: T1, human Nectin-4 extracellular antigen …; assay: ELISA, coated hNectin-4-His
Description: The binding activity of the antibodies was detected by ELISA.

[2] = molecular target: T1, human Nectin-4 extracellular antigen …; assay: SPR, antibody on Protein A chip, 1:1 fit
Description: In this study, the affinity of the antibodies for the human Nectin-4 extracellular antigen was detected by surface plasmon resonance (SPR) technique (BIAcore: GE Healthcare, T200).

Row | Binder | EC50 [1] [ng/mL] | Kd [2] [nM] | koff [2] [s⁻¹] | kon [2] [M⁻¹ s⁻¹]
1 | antibody 1G8-1C10 (antibody, human IgG1, kappa, V domains shown) VH: EVQLVESGGGLVQPGGSLRLSCAASGFNFSDYSMSWVRQAPGKGLEWVSRIKASSGGSDYADSVKGRFTISRDNSKNTLYLQMNSLRAEDTAVYYCARQTEDRSYGYDLDYWGQGTLVTVSS VL: DIQMTQSPSSLSASVGDRVTITCRASQGISSYLAWYQQKPGKAPKLLIYAASSLQSGVPSRFSGSGSGTDFTLTISSLQPEDFATYYCQQHYTTPPTFGQGTKVEIKR | 5 | – | – | –
2 | antibody 1F3-1F4 (antibody, human IgG1, kappa, V domains shown) VH: EVQLVESGGGLVQPGGSLRLSCAASGDIFTGSSMSWVRQAPGKGLEWVSGIYASGSDKRYADSVKGRFTISRDNSKNTLYLQMNSLRAEDTAVYYCARAELLAFDVYTASDYWGQGTLVTVSS VL: DIQMTQSPSSLSASVGDRVTITCRASQGISSYLAWYQQKPGKAPKLLIYAASSLQSGVPSRFSGSGSGTDFTLTISSLQPEDFATYYCQQHYTTPPTFGQGTKVEIKR | 9 | – | – | –
3 | antibody 1G8-2H8 (antibody, human IgG1, kappa, V domains shown) VH: EVQLVESGGGLVQPGGSLRLSCAASGDIFGSYAMSWVRQAPGKGLEWVSAISGSGGSTYYADSVKGRFTISRDNSKNTLYLQMNSLRAEDTAVYYCARQTEDRSYGYDLDYWGQGTLVTVSS VL: DIQMTQSPSSLSASVGDRVTITCRASQGISSYLAWYQQKPGKAPKLLIYAASSLQSGVPSRFSGSGSGTDFTLTISSLQPEDFATYYCQQHYTTPPTFGQGTKVEIKR | 5 | – | – | –
4 | antibody 1F3-2D2 (antibody, human IgG1, kappa, V domains shown) VH: EVQLVESGGGLVQPGGSLRLSCAASGFNFSSYGMSWVRQAPGKGLEWVSRISPYTGTTHYADSVKGRFTISRDNSKNTLYLQMNSLRAEDTAVYYCARAELLAFDVYTASDYWGQGTLVTVSS VL: DIQMTQSPSSLSASVGDRVTITCRASQGISSYLAWYQQKPGKAPKLLIYAASSLQSGVPSRFSGSGSGTDFTLTISSLQPEDFATYYCQQHYTTPPTFGQGTKVEIKR | 15 | – | – | –
5 | antibody 1F3-1C4 (antibody, human IgG1, kappa, V domains shown) VH: EVQLVESGGGLVQPGGSLRLSCAASGFTFGDYGMSWVRQAPGKGLEWVSGIKPWGSGTYYADSVKGRFTISRDNSKNTLYLQMNSLRAEDTAVYYCARAELLAFDVYTASDYWGQGTLVTVSS VL: DIQMTQSPSSLSASVGDRVTITCRASQGISSYLAWYQQKPGKAPKLLIYAASSLQSGVPSRFSGSGSGTDFTLTISSLQPEDFATYYCQQHYTTPPTFGQGTKVEIKR | 11 | – | – | –
6 | antibody 1F3-1G7 (antibody, human IgG1, kappa, V domains shown) VH: EVQLVESGGGLVQPGGSLRLSCAASGDIFSNYSMSWVRQAPGKGLEWVSGIYPSGDSRRYADSVKGRFTISRDNSKNTLYLQMNSLRAEDTAVYYCARAELLAFDVYTASDYWGQGTLVTVSS VL: DIQMTQSPSSLSASVGDRVTITCRASQGISSYLAWYQQKPGKAPKLLIYAASSLQSGVPSRFSGSGSGTDFTLTISSLQPEDFATYYCQQHYTTPPTFGQGTKVEIKR | 8 | 0.743 | 0.000596 | 802000
7 | antibody 1G8-1G3 (antibody, human IgG1, kappa, V domains shown) VH: EVQLVESGGGLVQPGGSLRLSCAASGFNFGTYAMSWVRQAPGKGLEWVSRISGISAGTNYADSVKGRFTISRDNSKNTLYLQMNSLRAEDTAVYYCARQTEDRSYGYDLDYWGQGTLVTVSS VL: DIQMTQSPSSLSASVGDRVTITCRASQGISSYLAWYQQKPGKAPKLLIYAASSLQSGVPSRFSGSGSGTDFTLTISSLQPEDFATYYCQQHYTTPPTFGQGTKVEIKR | 4 | 3 | 0.00141 | 471000
8 | antibody 1F3-2B9 (antibody, human IgG1, kappa, V domains shown) VH: EVQLVESGGGLVQPGGSLRLSCAASGFNFDSYAMSWVRQAPGKGLEWVSGIKPHTDDIYYADSVKGRFTISRDNSKNTLYLQMNSLRAEDTAVYYCARAELLAFDVYTASDYWGQGTLVTVSS VL: DIQMTQSPSSLSASVGDRVTITCRASQGISSYLAWYQQKPGKAPKLLIYAASSLQSGVPSRFSGSGSGTDFTLTISSLQPEDFATYYCQQHYTTPPTFGQGTKVEIKR | 9 | 0.552 | 0.00101 | 1.82e+06
9 | antibody 1F3-1E4 (antibody, human IgG1, kappa, V domains shown) VH: EVQLVESGGGLVQPGGSLRLSCAASGFSFGTYGMSWVRQAPGKGLEWVSRISGDSANIRYADSVKGRFTISRDNSKNTLYLQMNSLRAEDTAVYYCARAELLAFDVYTASDYWGQGTLVTVSS VL: DIQMTQSPSSLSASVGDRVTITCRASQGISSYLAWYQQKPGKAPKLLIYAASSLQSGVPSRFSGSGSGTDFTLTISSLQPEDFATYYCQQHYTTPPTFGQGTKVEIKR | – | 0.426 | 0.000825 | 1.94e+06
10 | antibody 1G8-2G8 (antibody, human IgG1, kappa, V domains shown) VH: EVQLVESGGGLVQPGGSLRLSCAASGFNFTNYAMSWVRQAPGKGLEWVSRISTYGDTTHYADSVKGRFTISRDNSKNTLYLQMNSLRAEDTAVYYCARQTEDRSYGYDLDYWGQGTLVTVSS VL: DIQMTQSPSSLSASVGDRVTITCRASQGISSYLAWYQQKPGKAPKLLIYAASSLQSGVPSRFSGSGSGTDFTLTISSLQPEDFATYYCQQHYTTPPTFGQGTKVEIKR | 6 | 1.87 | 0.00142 | 758000
11 | antibody 1G8-2H4 (antibody, human IgG1, kappa, V domains shown) VH: EVQLVESGGGLVQPGGSLRLSCAASGDSFTGYAMSWVRQAPGKGLEWVSAISGSGGSTYYADSVKGRFTISRDNSKNTLYLQMNSLRAEDTAVYYCARQTEDRSYGYDLDYWGQGTLVTVSS VL: DIQMTQSPSSLSASVGDRVTITCRASQGISSYLAWYQQKPGKAPKLLIYAASSLQSGVPSRFSGSGSGTDFTLTISSLQPEDFATYYCQQHYTTPPTFGQGTKVEIKR | 39 | – | – | –
12 | antibody 1F3-1F8 (antibody, human IgG1, kappa, V domains shown) VH: EVQLVESGGGLVQPGGSLRLSCAASGFNFGNYGMSWVRQAPGKGLEWVSRISGDGSNINYADSVKGRFTISRDNSKNTLYLQMNSLRAEDTAVYYCARAELLAFDVYTASDYWGQGTLVTVSS VL: DIQMTQSPSSLSASVGDRVTITCRASQGISSYLAWYQQKPGKAPKLLIYAASSLQSGVPSRFSGSGSGTDFTLTISSLQPEDFATYYCQQHYTTPPTFGQGTKVEIKR | 8 | 0.564 | 0.000966 | 1.71e+06
13 | antibody 1G8-2C6 (antibody, human IgG1, kappa, V domains shown) VH: EVQLVESGGGLVQPGGSLRLSCAASGDNFSSYAMSWVRQAPGKGLEWVSRIYGSDSTPDYADSVKGRFTISRDNSKNTLYLQMNSLRAEDTAVYYCARQTEDRSYGYDLDYWGQGTLVTVSS VL: DIQMTQSPSSLSASVGDRVTITCRASQGISSYLAWYQQKPGKAPKLLIYAASSLQSGVPSRFSGSGSGTDFTLTISSLQPEDFATYYCQQHYTTPPTFGQGTKVEIKR | 5 | 1.87 | 0.00137 | 734000
14 | antibody 1G8-1E10 (antibody, human IgG1, kappa, V domains shown) VH: EVQLVESGGGLVQPGGSLRLSCAASGDSFSTYAMSWVRQAPGKGLEWVSRISGSGDGKDYADSVKGRFTISRDNSKNTLYLQMNSLRAEDTAVYYCARQTEDRSYGYDLDYWGQGTLVTVSS VL: DIQMTQSPSSLSASVGDRVTITCRASQGISSYLAWYQQKPGKAPKLLIYAASSLQSGVPSRFSGSGSGTDFTLTISSLQPEDFATYYCQQHYTTPPTFGQGTKVEIKR | 6 | 1.31 | 0.00087 | 665000
15 | antibody 1F3-1D12 (antibody, human IgG1, kappa, V domains shown) VH: EVQLVESGGGLVQPGGSLRLSCAASGYNFTDYGMSWVRQAPGKGLEWVSGISGSGDNKYYADSVKGRFTISRDNSKNTLYLQMNSLRAEDTAVYYCARAELLAFDVYTASDYWGQGTLVTVSS VL: DIQMTQSPSSLSASVGDRVTITCRASQGISSYLAWYQQKPGKAPKLLIYAASSLQSGVPSRFSGSGSGTDFTLTISSLQPEDFATYYCQQHYTTPPTFGQGTKVEIKR | 7 | – | – | –
16 | antibody 1G8-2F11 (antibody, human IgG1, kappa, V domains shown) VH: EVQLVESGGGLVQPGGSLRLSCAASGYTFGSNAMSWVRQAPGKGLEWVSRISPDSSGISYADSVKGRFTISRDNSKNTLYLQMNSLRAEDTAVYYCARQTEDRSYGYDLDYWGQGTLVTVSS VL: DIQMTQSPSSLSASVGDRVTITCRASQGISSYLAWYQQKPGKAPKLLIYAASSLQSGVPSRFSGSGSGTDFTLTISSLQPEDFATYYCQQHYTTPPTFGQGTKVEIKR | 4 | – | – | –
17 | antibody 1G8-2F2 (antibody, human IgG1, kappa, V domains shown) VH: EVQLVESGGGLVQPGGSLRLSCAASGDIFGSYAMSWVRQAPGKGLEWVSRISSHGASRDYADSVKGRFTISRDNSKNTLYLQMNSLRAEDTAVYYCARQTEDRSYGYDLDYWGQGTLVTVSS VL: DIQMTQSPSSLSASVGDRVTITCRASQGISSYLAWYQQKPGKAPKLLIYAASSLQSGVPSRFSGSGSGTDFTLTISSLQPEDFATYYCQQHYTTPPTFGQGTKVEIKR | 12 | 2.12 | 0.00166 | 784000
18 | antibody 1F3-1A9 (antibody, human IgG1, kappa, V domains shown) VH: EVQLVESGGGLVQPGGSLRLSCAASGYSFDNYAMSWVRQAPGKGLEWVSRISPTGGYASYADSVKGRFTISRDNSKNTLYLQMNSLRAEDTAVYYCARAELLAFDVYTASDYWGQGTLVTVSS VL: DIQMTQSPSSLSASVGDRVTITCRASQGISSYLAWYQQKPGKAPKLLIYAASSLQSGVPSRFSGSGSGTDFTLTISSLQPEDFATYYCQQHYTTPPTFGQGTKVEIKR | 7 | 0.641 | 0.000994 | 1.55e+06
